From the Human Domainome abundance scans (Beltran et al. 2025)
± gives the uncertainty stated by the source.

B1: Nanos homolog 2, residues 63 to 115; numbered along this chain, P60321 (parent)
chain: CNFCKHNGESRHVYSSHQLKTPDGVVVCPILRHYVCPVCGATGDQAHTLKYCP

Variants of: B1
Assay: abundance fitness (aPCA) (normalised: wild type 0, dead -1); higher = more abundant; growth selection in yeast, the domain comes from the species named
Settings: Homo sapiens

Variant | abundance fitness
H33E | -0.082 ± 0.12
H33W | -0.086 ± 0.09
G24E | -0.115 ± 0.079
G24V | -0.882 ± 0.081
G24M | -0.461 ± 0.14
G24L | -0.527 ± 0.064
G24F | -1.02 ± 0.26
G24W | -1.12 ± 0.27
G24C | -0.496 ± 0.19
I30Q | -0.05 ± 0.12
I30N | 0.039 ± 0.18
I30G | -0.081 ± 0.065
I30P | -0.249 ± 0.091
I30K | 0.127 ± 0.089
I30M | 0.015 ± 0.11
I30D | -0.345 ± 0.28
F3T | -0.988 ± 0.19
F3W | -0.709 ± 0.13
F3Q | -0.933 ± 0.094
F3M | -1.06 ± 0.21
F3S | -0.623 ± 0.047
F3N | -0.877 ± 0.27
F3Y | -0.117 ± 0.11
F3E | -1.22 ± 0.25

Variant | abundance fitness
C52E | -0.64 ± 0.34
C52D | -0.505 ± 0.18
C52F | -0.789 ± 0.22
C52W | -0.824 ± 0.12
C52H | -0.181 ± 0.078
C52A | -0.777 ± 0.2
S15K | -0.099 ± 0.079
S15I | -0.258 ± 0.1
S15N | -0.034 ± 0.093
S15F | -0.135 ± 0.1
N2E | -0.663 ± 0.099
N2V | -0.819 ± 0.084
N2P | -0.812 ± 0.19
N2W | -0.759 ± 0.08
V13M | 0.056 ± 0.092
V13W | -0.04 ± 0.11
V13A | -0.084 ± 0.077
V13Y | -0.125 ± 0.11
V13G | -0.007 ± 0.087
V13L | -0.05 ± 0.074
V13S | -0.008 ± 0.069
V13N | 0.064 ± 0.099
V13R | -0.06 ± 0.065
Y51L | -0.137 ± 0.077

Variant | abundance fitness
Y51V | -0.071 ± 0.067
L19C | -0.093 ± 0.15
L19G | -0.292 ± 0.1
L19T | -0.041 ± 0.13
L19I | -0.149 ± 0.24
L19D | -0.172 ± 0.18
L19R | -0.372 ± 0.082
L19Q | -0.329 ± 0.22
L19V | -0.113 ± 0.078
K50I | -0.809 ± 0.3
K50S | -0.179 ± 0.086
K50W | -0.226 ± 0.12
K50F | -0.418 ± 0.17
K50G | -0.298 ± 0.063
K50L | -0.379 ± 0.099
K50Q | -0.225 ± 0.11
K50N | -0.1 ± 0.17
K50D | -0.484 ± 0.22
V25M | -0.051 ± 0.12
V25E | 0.015 ± 0.067
V25I | 0.03 ± 0.096
V25K | 0.085 ± 0.083
V25W | -0.459 ± 0.13
V25N | 0.08 ± 0.097

Variant | abundance fitness
V25H | -0.489 ± 0.18
T42D | -0.24 ± 0.12
T42F | -0.395 ± 0.39
T42N | -0.23 ± 0.14
Y14T | 0.011 ± 0.081
Y14C | 0.036 ± 0.11
Y14I | -0.18 ± 0.15
Y14D | -0.213 ± 0.13
Y14M | -0.274 ± 0.11
Y14H | -0.226 ± 0.14
Y14K | -0.133 ± 0.087
Y14A | -0.165 ± 0.058
Y14L | -0.125 ± 0.071
D23Q | -0.061 ± 0.072
D23P | -0.378 ± 0.11
D23I | -0.418 ± 0.13
D23L | -0.252 ± 0.088
D23V | -0.22 ± 0.069
D23G | -0.132 ± 0.084
L31Y | -0.66 ± 0.24
L31Q | -0.349 ± 0.097
L31G | -0.443 ± 0.081
L31W | -0.566 ± 0.15
L31C | -0.416 ± 0.14

Variant | abundance fitness
L31I | -0.16 ± 0.17
D44Y | -0.55 ± 0.14
D44E | -0.334 ± 0.14
D44G | -0.048 ± 0.059
D44H | -0.514 ± 0.23
C4F | -0.423 ± 0.12
C4T | -0.879 ± 0.088
C4R | -0.933 ± 0.051
C4M | -1 ± 0.22
C4N | -0.694 ± 0.079
C4K | -0.63 ± 0.19
C4E | -0.867 ± 0.13
C4V | -0.952 ± 0.088
V38N | -0.012 ± 0.13
V38K | 0.314 ± 0.089
V38G | 0.082 ± 0.066
V38Q | 0.091 ± 0.1
P22W | -0.321 ± 0.17
P22G | -0.041 ± 0.084
P22D | -0.112 ± 0.1
P22C | 0.002 ± 0.15
P22I | -0.158 ± 0.13
P22A | -0.048 ± 0.09
P22Y | -0.121 ± 0.086

Variant | abundance fitness
P22V | -0.053 ± 0.069
P22R | -0.079 ± 0.075
P22K | 0.306 ± 0.13
E9A | -0.103 ± 0.061
E9M | -0.116 ± 0.073
E9T | -0.154 ± 0.087
E9N | -0.153 ± 0.1
E9S | -0.26 ± 0.089
E9D | -0.298 ± 0.1
E9K | -0.007 ± 0.079
E9R | -0.125 ± 0.066
V27D | -0.09 ± 0.13
V27Q | -0.349 ± 0.28
V27T | 0.02 ± 0.072
V27R | 0.037 ± 0.094
V27I | 0.053 ± 0.13
V27L | -0.075 ± 0.11
G43H | -0.701 ± 0.3
G43I | -0.744 ± 0.17
G43Q | -0.176 ± 0.081
G43N | -0.35 ± 0.23
G43E | -0.187 ± 0.12
G43M | -0.414 ± 0.07
C39A | -0.986 ± 0.46

Variant | abundance fitness
C39Y | -0.781 ± 0.073
C39P | -0.85 ± 0.24
C39M | -0.717 ± 0.2
C39H | -0.597 ± 0.22
C28A | -0.714 ± 0.12
C28S | -0.501 ± 0.085
C28L | -0.962 ± 0.078
C28M | -0.524 ± 0.11
C28Q | -0.428 ± 0.2
C28P | -0.664 ± 0.18
L49G | -0.05 ± 0.06
L49H | 0.169 ± 0.18
L49D | -0.046 ± 0.097
L49S | -0.071 ± 0.097
L49F | -0.076 ± 0.083
L49N | -0.013 ± 0.14
K20G | -0.523 ± 0.12
K20A | -0.111 ± 0.057
K20N | -0.388 ± 0.16
K20Y | -0.455 ± 0.14
K20S | -0.168 ± 0.081
S10F | -0.251 ± 0.082
S10W | -0.442 ± 0.086
